Experiments:
[1] = target: T1, human ecto-nucleoside triphosphate diphosphohydrolase-3 (NTPDase3) (human, UniProt O75355 1-529); assay: cell-based or functional assay
T1 sequence (looked up): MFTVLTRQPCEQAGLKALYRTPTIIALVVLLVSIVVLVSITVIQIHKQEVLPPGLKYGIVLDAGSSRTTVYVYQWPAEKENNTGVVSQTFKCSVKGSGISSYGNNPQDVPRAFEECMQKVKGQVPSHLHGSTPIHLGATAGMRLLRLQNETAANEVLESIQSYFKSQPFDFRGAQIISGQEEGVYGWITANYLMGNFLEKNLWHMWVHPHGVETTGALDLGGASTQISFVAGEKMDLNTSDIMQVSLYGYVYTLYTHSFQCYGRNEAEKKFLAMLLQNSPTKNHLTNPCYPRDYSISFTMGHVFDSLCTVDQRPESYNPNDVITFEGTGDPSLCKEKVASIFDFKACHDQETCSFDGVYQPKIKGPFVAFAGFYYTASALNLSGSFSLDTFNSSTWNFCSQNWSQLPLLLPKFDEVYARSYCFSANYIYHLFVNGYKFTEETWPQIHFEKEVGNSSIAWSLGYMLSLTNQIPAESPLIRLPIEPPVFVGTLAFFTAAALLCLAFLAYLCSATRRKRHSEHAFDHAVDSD

[2] = target: T1, human ecto-nucleoside triphosphate …; assay: cell-based or functional assay; remark: listed apart in the source

B1: 4F9 Hu/Ra (antibody, V domains shown)
VH: QSVEESGGRLVTPGTPLTLTCTVSGFSLSSYAMGWVRQAPGKGLEFIGIITYNGNTYYASWAKGRFPISKTSSTTVDLKMTSPTTEDTATYFCARARYGGYSTNSYYLNIWGPGTLVTVSS
VL: DVVMTQTPASVSAAVGGTVTINCQASENIYRILAWYQQKPGQRPKLLIYGASNLETGVPSRFKGSGSGTEYTLTISDLECDDAATYYCQGVLYNSNDSTFGGGTEVVVKG
B1 was tested, and the “ADCC EC50 (µg/mL), NFAT luciferase reporter Jurkat/hCD16a-158V” value [1] was 0.064 µg/mL and the “Enzyme Activity Inhibition Capacity: % of Maximal Inhibition” value (“Enzyme Activity Inhibition Capacity: %” below) [1] was 12%.

B2: 16D4 Hu/Ra (antibody, V domains shown)
VH: QSVEESGGRLVTPGTPLTLTCTVSGFSLSSYAMGWVRQAPGKGLEFIGIITYNGGTYYASWAKGRFPISKTSSTTVDLKMTSPTTEDTATYFCARARYGGYSTNSYYLNIWGPGTLVTVSS
VL: DVVMTQTPASVSAAVGGTVTINCQASENIYRVLAWYQQKPGQRPKLLIYGASNLETGVPSRFKGSGSGTEYTLTISDLECDDAATYYCQGVLYDNNDSTFGGGTEVVVKG
B2 was tested, and the “ADCC EC50 (µg/mL), NFAT luciferase reporter Jurkat/hCD16a-158V” value [1] was 0.053 µg/mL and the “Enzyme Activity Inhibition Capacity: %” value [1] was 9%.

B3: 8E1 Hu/Ra (antibody, V domains shown)
VH: QSVEESGGRLVTPGTPLTLTCTVSGFSLSSYAMGWVRQAPGKGLEFIGIISYSGNTYYASWAKGRFPISKTSSTTVDLKMTSPTTEDTANYFCARARYGGYSTNSYYLNIWGPGTLVTVSS
VL: DVVMTQTPASVEAAVGGTVTINCQASENIYRVLAWYQQKPGQRPKLLIYGASNLESGVPSRFKGSGSGTDYTLTISDLECDDAATYYCQGVVYNSDDSAFGGGTEVVVKG
With B3 the “ADCC EC50 (µg/mL), NFAT luciferase reporter Jurkat/hCD16a-158V” value [1] was 0.075 µg/mL, the “CDC % of Maximal Cytotoxicity” value [1] was 13% and the “CDC EC50” value [1] was 0.239 µg/mL. For the same binder, the “Enzyme Activity Inhibition Capacity: %” value [1] was 5%.

B4: 37H1 Hu/Ra (antibody, V domains shown)
VH: QSVEESGGRLVTPGTPLTLTCTVSGFSLSSYAVGWVRQAPGKGLEFIGIITYNGATYYASWAEGRFPISKTSSTTVDLKMTSPTTEDTATYFCARARYGGYSTNSYYLNIWGPGTLVTVSS
VL: DVVMTQTPASVSAAVGGTVTINCQASENIYRILAWYQQKPGQRPKLLIYGASNLETGVPSRFKGSGSGTEYTLTISDLECDDAATYYCQGVLWNSNDSTFGGGTEVVVKG
With B4 the “ADCC EC50 (µg/mL), NFAT luciferase reporter Jurkat/hCD16a-158V” value [1] was 0.044 µg/mL and the “Enzyme Activity Inhibition Capacity: %” value [1] was 9%.

B5: 42D8 Hu/Ra (antibody, V domains shown)
VH: QSVEESGGRLVTPGTPLTLTCTVSGFSLSSYAMGWVRQAPGKGLEFIGIITYNSNTYYANWAKGRFPISKTSSTTVDLKMTSPTTEDTATYFCARARYGGYSTNSYYLNIWGPGTLVTVSS
VL: DVVMTQTPASVSAAVGGTVTINCQASENIYRILAWYQQKPGQPPKLLIYGASNLETGVPSRFKGSGSGTEYTLTISDLECDDAATYYCQGVLYNSNDSTFGGGTEVVVKG
B5 was tested, and the “ADCC EC50 (µg/mL), NFAT luciferase reporter Jurkat/hCD16a-158V” value [1] was 0.072 µg/mL and the “Enzyme Activity Inhibition Capacity: %” value [1] was 12%.

B6: 44H5 Hu/Ra (antibody, V domains shown)
VH: QEQLEESGGDLVKPEGSLTLTCTASGFDSSSTYYMCWVRQAPGKGLEWSGCIYTGGLTYYASWAKGRFTISKTSSTTVTLQMTSLTAADTATYFCASYIGSRFYMPGFSLWGPGTLVTVSS
VL: AIVMTQTPSSKSVPVGDTVTINCQASESIYSNNRLAWFQQKPGQPPKLLIYLASTLASGVPSRFKGSGSGTQFTLTISDVVCDDAATYYCAGYKGSSTDGTAFGGGTEVVVKG
With B6 the “ADCC EC50 (µg/mL), NFAT luciferase reporter Jurkat/hCD16a-158V” value [1] was 0.045 µg/mL and the “Enzyme Activity Inhibition Capacity: %” value [1] was 15%.

B7: 38D12 Hu/Ra (antibody, V domains shown)
VH: QSVEESGGRLVTPGTPLTLTCTVSGFSLSSYVINWVRQAPGKGLEWIGTISSSGSTYYASWAKGRFTISTTSSTTVDLKITSPTTEDTATYFCARGADGAFISDYFNIWGPGTLVTVSS
VL: DIVMTQTPSSVSAAVGGTVTIKCQANENIDSWLAWYQQKPGQRPKLLIYYASTLASGVPSRFKGSGSGTEYTLTISDLECADGATYYCQSYDTISDYGVGFGGGTEVVVKG
In the case of B7, the “ADCC EC50 (µg/mL), NFAT luciferase reporter Jurkat/hCD16a-158V” value [1] is reported as 0.059 µg/mL and the “Enzyme Activity Inhibition Capacity: %” value [1] is reported as 9%.

B8: 38D5 hIgG1 (antibody, V domains shown)
VH: EQQLLESGGGLVQPGGSLRLSCAASGIDFNNYGISWVRQAPGKGLEWIAYKYPGFGIRNYANSVKGRFTISSDNSKNTVYLQMNSLRAEDTAVYFCARGARYRHDDYGALNLWGPGTLVTVSS
VL: DIQMTQSPSTLSASVGDRVTITCQASQSVTNLLAWYQQKPGKPPKLLIYGASNLESGVPSRFSGSGSGTEFTLTISSLQPDDFATYYCQSGYYSANTFGPGTKVDIK
B8 was tested, and the “ADCC EC50 (µg/mL), NFAT luciferase reporter Jurkat/hCD16a-158V” value [1] was 0.104 µg/mL, the “ADCC fold increase in relation to parental clone at 1 µg/mL” value [1] was 1.2 fold and the “CDC % of Maximal Cytotoxicity” value [1] was 4%. The “CDC EC50” value [1] was 0.694 µg/mL, the “Enzyme Activity Inhibition Capacity: %” value [1] was 43% and the “Enzyme Activity Inhibition Capacity: EC50” value [1] was 0.22 µg/mL.

B9: 38D5 hIgG4 (antibody, V domains shown)
VH: EQQLLESGGGLVQPGGSLRLSCAASGIDFNNYGISWVRQAPGKGLEWIAYKYPGFGIRNYANSVKGRFTISSDNSKNTVYLQMNSLRAEDTAVYFCARGARYRHDDYGALNLWGPGTLVTVSS
VL: DIQMTQSPSTLSASVGDRVTITCQASQSVTNLLAWYQQKPGKPPKLLIYGASNLESGVPSRFSGSGSGTEFTLTISSLQPDDFATYYCQSGYYSANTFGPGTKVDIK
For B9, the “Enzyme Activity Inhibition Capacity: %” value [1] was 41%.

B10: 3E9 Hu/Ra (antibody, V domains shown)
VH: QSLEESGGDLVKPGASLTLTCTASGFSFSSSDWICWVRQAPGKGLEWIACIYAGSIGGAYFASWVNGRFTISRASSTTVTLQMTSLTAADTATYFCARSSSNGRLKLDQFDLWGPGTLVTVSS
VL: AYDMTQTPASVEVAVGGTVTINCQASQSIGGWLSWYRQKPGQPPSLLIYKASTLASGVSSRFSGTGSRTHFTLTINGVQCADAATYYCQQGSAADVANTFGGGTEVVVKG
In the case of B10, the “ADCC EC50 (µg/mL), NFAT luciferase reporter Jurkat/hCD16a-158V” value [1] is reported as 0.044 µg/mL and the “Enzyme Activity Inhibition Capacity: %” value [1] is reported as 6%.

B11: 38D5 Hu/Ra (antibody, V domains shown)
VH: QELVESGGGLVQPGGSLKLSCKASGIDFNNYGISWVRQAPGKGLEWIAYKYPGFGIRNYANSVKGRFTISSDNAQNTVFLQMTSLAASDTATYFCARGARYRHDDYGALNLWGPGTLVTVSS
VL: DIVMTQTPPSVSAAVGGTVTINCQASQSVTNLLAWYQQKPGQPPKLLIYGASNLESGVPSRFRGSGSGTEFTLTISGMKAEDAATYYCQSGYYSANTFGAGTKVGIKR
With B11 the “EC50 of hENTPD3 enzyme activity inhibition, CHO-hENTPD3 cells, antibody 30 minutes” value [2] was 15.9 µg/mL, the “enzyme activity inhibition capacity, maximal inhibition” value [2] was roughly 40% and the “ADCC EC50 (µg/mL), NFAT luciferase reporter Jurkat/hCD16a-158V” value [1] was 0.104 µg/mL. The “CDC % of Maximal Cytotoxicity” value [1] was 1%, the “CDC EC50” value [1] was 1.73 µg/mL and the “Enzyme Activity Inhibition Capacity: %” value [1] was 44%. The “Enzyme Activity Inhibition Capacity: EC50” value [1] was 0.31 µg/mL.

B12: PBI #30af4 hIgG1 (antibody, V domains shown)
VH: QVQLQESGGGLIQPGGSLRLSCAASGFTSSSSDYAMSWVRQAPGKGLEWVSSISGSGVSTYYADSVKGRFTISRDNSKNTLYVQMTSLTAEDTAVYYCAKVVGYSVYDYYYHYALDVWGQGTTVTVSS
VL: QPVLTQPPSASGTPGQRVTISCSGSSSNIGSNTVNWYQQLPGTAPKLLIYSDNQRPSGVPDRFSGSKSGTSASLTISGLKTEDEAGYYCQSDDTSNVVFGGGTKVTVL
B12 was tested, and the “enzyme activity inhibition capacity, maximal inhibition” value [2] was roughly 100%, the “ADCC EC50 (µg/mL), NFAT luciferase reporter Jurkat/hCD16a-158V” value [1] was 0.434 µg/mL and the “ADCC fold increase in relation to parental clone at 1 µg/mL” value [1] was 2.8 fold. For the same binder, the “Enzyme Activity Inhibition Capacity: %” value [1] was 91% and the “Enzyme Activity Inhibition Capacity: EC50” value [1] was 0.82 µg/mL.

B13: PBI #30af4 hIgG4 (antibody, V domains shown)
VH: QVQLQESGGGLIQPGGSLRLSCAASGFTSSSSDYAMSWVRQAPGKGLEWVSSISGSGVSTYYADSVKGRFTISRDNSKNTLYVQMTSLTAEDTAVYYCAKVVGYSVYDYYYHYALDVWGQGTTVTVSS
VL: QPVLTQPPSASGTPGQRVTISCSGSSSNIGSNTVNWYQQLPGTAPKLLIYSDNQRPSGVPDRFSGSKSGTSASLTISGLKTEDEAGYYCQSDDTSNVVFGGGTKVTVL
For B13, the “enzyme activity inhibition capacity, maximal inhibition” value [2] was roughly 100%, the “Enzyme Activity Inhibition Capacity: %” value [1] was 95% and the “Enzyme Activity Inhibition Capacity: EC50” value [1] was 1.33 µg/mL.
